Patent publication US20240287489A1, “CHITINOLYTIC ENZYME-BASED PLANT PROTECTION AGENTS” (GLOBACHEM NV, priority 2021, published 2024)
Entries after “also recorded” stand apart in the source; their conditions may differ.

Experiments:
[1] = Temperature, pH and NaCl optima and temperature stability of recombinant chitinases (reducing end assay); format: biochemical; conditions: for enzyme activity (relative): 20% (w/v) NaCl; for enzyme activity (relative) / Optimum salinity: pH 8, 30° C.; for Optimum pH: 30° C., pH 4-11; for Optimum salinity: 0-20% w/v NaCl
Method: All enzymes were first characterized regarding their temperature and pH-optima as well as the optimum NaCl content as the enzymes were isolated from a sea-water microorganism. As the future intention is to integrate these novel enzymes in a degradation processes of natural chitin, all parameters were determined using chitin powder as a substrate instead of pre-treated analogs such as colloidal chitin, glycol chitin or artificial fluorogenic substrates. […] (FIG. 5A). Next, enzyme temperature stability was investigated (FIG. 51). […] Enzyme C1 retained a 50% residual activity after 240 min incubation at 60° C., while the activity of the other chitinases dropped below 50% after 15 min and remained on that level.
Given the marine origin of the P. orarium strain, the effect of salt was also evaluated, testing the addition of NaCl to the standard buffer. […] Increasing NaCl amounts up to 20% (w/v) reduced enzyme activity substantially to 10% for C2, 4 and 5, with C1 and C3 showing highest tolerance (65% activity).
For the determination of enzymatic activity of recombinant chitinases, a reducing end assay was carried out [Svein et al., Carbohydr Polym, 2004. 56(1): p. 35-39.]. Fractions containing chitinases were incubated with 5% (w/v) chitin powder extracted from shrimp shells (˜400.000 g/mol; Carl Roth) in MAT buffer for 2 h in an overhead shaker at ambient temperature (standard conditions). Samples were centrifuged at 13000×g for 2 min and 40 μl of the supernatant was mixed with 40 μl 0.5 M NaOH and 40 μL of a reagent containing 1.5 mg/ml 3-Methyl-2-benzothiazolinonhydrazon and 0.75 mg/ml Dithiothreitol. Samples were incubated at 80° C. for 15 min and then thoroughly mixed with 80 μl of 0.5% (w/v) FeNH4(SO4)2)×12H2O, 0.5% (w/v) sulfamic acid and 0.25 M HCl. After cooling down to room temperature, 100 μl of the samples were measured at 620 nm. A calibration curve of N-acetyl-glucosamine was constructed freshly for each measuring cycle. One unit [U] was defined as the amount of enzyme required to release 1 μmol of reducing sugars per hour.
(§1) Enzyme samples were incubated at different temperature (10-60° C., 10° C. increment) and pH (4-11, increment 1) using different buffer systems (Acetate, Tris-HCl, MES, total molar concentration 100 mM), as well as NaCl content (0, 1. 2.5, 5, 10 and 20% w/v) to determine optimum reaction conditions. All experiments were carried out at 1.0 ml scale using 2 μM of the respective enzymes and a 5% (wv) suspension of chitin powder extracted from shrimp shells (˜400.000 g/mol; Carl, Roth) in 100 mM MAT buffer. For the determination of the substrate specificity, chitin powder (5% w/v), glycol chitin (10% v/v), colloidal chitin (5% w/v), chitosan [DA 15-25%, medium molecular weight, Sigma-Aldrich] (5% w/v) and microcrystalline cellulose powder (Sigma Aldrich) (5% w/v) were investigated, respectively. The effect of several potential co-factors on activity was elucidated at a concentration of 1 mM. Additionally, the effect of detergents [SDS 0.5% (w/v), Tween-20 and Triton X-100 both at 0.5% (v/v)] and chemicals (Imidazole 100 mM, EDTA 1 mM) on enzymatic activity was assessed. Samples were incubated in a thermomixer for 16 h at 900 rpm. After incubation, samples were analyzed using the enzyme assay. Thermostability was assessed after incubation of recombinant chitinases at 60° C. for different durations followed by the quantification of residual enzyme activity under standard assay conditions.

[2] = Enzyme kinetics on chitin powder (Michaelis-Menten non-linear fit); format: biochemical; conditions: 2 μM enzyme, 0-150 mg/ml chitin powder
Method: Enzyme kinetics were determined using chitin powder as a substrate and the optimum enzyme to substrate ratio could be determined as well as Vmax and Km values. The concentrations of chitin powder varied
from 0 mg/ml up to 150 mg/ml while amount of enzyme was kept constant (2 μM). The initial velocities (V0) versus substrate concentration ([S]) were plotted as Lineweaver-Burk and Michaelis-Menten curves using GraphPad software (FIG. 7).
Maximum reaction velocities (Vmax) and Michaelis-Menten constants (Km) were determined using a non-linear fit Michaelis-Menten model (Table 4.6). Thereby, optimum enzyme-substrate ratios were determined that would allow a maximization of substrate conversion rates. Furthermore, the Km indicated the reciprocal enzyme-substrate affinity for C1-C5. Higher Km values reflect an overall lower affinity and thus reduced conversion efficiencies. […] In comparison, higher Km values for C2 and C5 reflected an overall lower affinity to insoluble chitin.
as §1

[3] = TLC analysis of cleavage patterns with chitin standard molecules; format: biochemical; conditions: for hydrolysis products from chitin pentamers / hydrolysis products from chitin trimers: 4 mg/ml, 16 h, TLC; for cleavage mechanism (exo-/endo-chitinase activity): TLC of products from oligomeric or polymeric chitin substrates
Method: monomeric oligomers. Chitosan was degraded to a crude mixture of multiple oligomers ranging from dimers to pentamers and even larger undefined yet water-soluble fragments that migrated slightly from the starting point. Further analysis of the cleavage patterns was carried out using chitin standard molecules of DP2-DP6 and incubating them at 4 mg/ml concentration with the individual enzymes (FIG. 9).
Dimeric chitin molecules were not converted by any of the enzymes. […] All chitinases degraded chitin tetramers to dimers as a single product. […] Chitin hexamers were degraded to dimers and trimers. Although all chitinases are different in their structure and present different glycosyl hydrolase domains hydrolysis products in general were similar.
C2, 4 and 5 yielded similar product patterns when incubated with insoluble substrates. […] The presented data underline that the novel chitinases are all suited for the degradation of powdery chitin without any further harsh chemical pre-treatment.
Hydrolysis products were analyzed using 10×10 cm TLC Silica gel 60 F254 plates (Merck, Darmstadt, Germany) and a mixture of butanol:methanol:25% ammonia:H2O (5:4:2:1) as mobile phase. A total sample volume of 0.5 μl was applied in 0.25 μl spots. Chitin standard sugars (Megazyme, Chicago, USA) (5 mg/ml) were applied to the plate (0.5 μL in 0.25 μL spots) as size standard for the determination of the DP. After separation, the plate was air-dried and the developing solution (200 ml Acetone, 30 ml phosphoric acid (85%), 4 ml aniline, 4 g diphenylamine) was sprayed on the plate followed by spot visualization at 300° C. using a heat gun.

[4] = tested on: Septoria tritici; test: Minimum inhibitory concentration (MIC) test on fungal pathogens; format: cell-based; design: key: xx = no growth/strong inhibition; x = small inhibition; conditions: start concentration 100 μg/ml
[5] = tested on: Gibberella zeae; format: cell-based; design: key: xx = no growth/strong inhibition; x = small inhibition; conditions: start concentration 100 μg/ml

Molecule	enzyme activity (relative) [1] [%]	Optimum pH ([1]; chitin powder, listed as C2)	Optimum salinity ([1]; chitin powder) [% NaCl]	Km (enzyme-substrate affinity) [2] [mg/mL]	Vmax (maximum reaction velocity) [2] [U/ml]	hydrolysis products from chitin pentamers [3]	hydrolysis products from chitin trimers [3]	cleavage mechanism (exo-/endo-chitinase activity) [3]	growth inhibition of Septoria tritici in the MIC test [4]	growth inhibition of Gibberella zeae in the MIC test [5]	Optimum pH ([1]; chitin powder, listed as C5)	cleavage mechanism (exo-/endo-chitinase activity) ([3]; listed as C5)	residual activity ([1]; after 240 min incubation at 60° C.) [%]	Optimum pH ([1]; chitin powder)	Optimum temperature ([1]; chitin powder, pH 8, range 10-60° C.) [°C]
Chitinase 2: chitinolytic enzyme from P. orarium, SEQ ID NO: 2, recombinant with PelB signal peptide and 6×His tag (protein, listed as Photobacterium orarium, PelB signal peptide; 6xHis tag; Chitinase 2) MATANYNPDGVYSAGEQVIYQGATYQALRSTENEAPDTYLGDAWQQVNAQNVTSSTTPTYPAYQSSAVYVGGDHVSYNSQIYKAKWWTQGEAPDATPGTGVWEWVSADNNPDPGPGPDPDPTPEPTPANGIIGQNPDGSYIMSKTYLDAREAELTSSPEFAAVLASISTRDNAVVEAVVPGLSTNPDNVKRVEALISEQKWDALFPERNVVYTYSNFLKAVAKFKGFCATYTDERAAQSDAICAKSLAVMFAHFTQETGAHNPHSPYEEWRQGLFFVREAGCSEEASSCGYNSECAASNWQTEQWPCGTNPDGSYVKYFGRGAKQLSYHYNYGPFSDFIFNDVNVLLQDPDRVADSWLNLASAVFFFVYPQPPKPSMLHVIDGTWQPTAADIAEKRVPGFGVTTMIINGGIECTLDTEKPQSVNRIKYYRGHAAALGVAIPADEQLGCAGMKAFKKTGDSTFGLYWENDWSYYPDNPGGSSFACRIESGYQTAHTTLKKGDYAKCIQKYYGVTIE	10	10	1	61.8	175.4	trimers and dimers	no activity	endo-chitinase activity	xx	xx					
Chitinase 5: chitinolytic enzyme from P. orarium, SEQ ID NO: 5, recombinant with PelB signal peptide and 6×His tag (protein, listed as Photobacterium orarium, PelB signal peptide; 6xHis tag; Chitinase 5) MAMGWSQININGVQKWEEAYSLNVDAANEIITIGAADTAGALYASQSLLQLVDGNKVPEVQITDAPRFAYRGFSVDAVRNFRTKDAIIQLLDQMAAFKLNKLHLRLADDEGWRIEIAGLPELTDVGATRCHDPEEKACILPFLGAGPDGSPESNGYYTATDYQDILSHAAALNIEVVPEIDIPGHAHAAIKAMEARYDHYAAQGNMAEANKYLLTDFNDTTQYLSVQMFTDNAINVCMESSYNFVDAVVSGLVSLHQGVQPLKTFHFGGDEIAGAWINSPACQDFIANNTDGVHSVSDLSRYFVERISVITANYGLDMAGWEDGLMHDGQVYPRSQMANNQLWGNAWQNIWEWGVADRAYNLANNDYKVVYNHATHLYFDHPYEPDPNERGYYWAPRFTDTRKTFGFMPDDVFANADFTRAGAPITKAEVVASAGVKKLLKPENVLGLQGSLWAEAVRTEDQFEGMIFPRVLGLAERAWHTATWEANDNAGIALDETGRNADYNHFANLLGQKVLPKLEQAGIAFNLPVPGGVIENGVLQANSTFPGLTIEYSTDQGTSWQSYDHLNPPAVAAGVQLRTVSGQRTSRVTTVNIE	10		0	36.0	89.5	trimers and dimers	no activity		xx	xx	9	no exochitinase activity; also recorded: endo-chitinase activity			
Chitinase 1: chitinolytic enzyme from P. orarium, SEQ ID NO: 1, recombinant with PelB signal peptide and 6×His tag; run 19 = 2 μM alone (protein, listed as Photobacterium orarium, PelB signal peptide; 6xHis tag; Chitinase 1, run 19 = 2 μM alone) MAAPGTPQIAWMETDYAIVEVDQAASAYKSLITVKPAAEVPVAWQRYSGETADLWKVKLNGNVVFEQSIAPASSGAGSTTLSVAQGGQYAMTVELCSGTGAAQACTSSAATNIVVADTDGSHLDPLPMNVDANNGNYTTPANTVVGAYFVEWGVYGRKFSVDNIPAQNLTHILYGFIPICGPNESLGEIENGNSLAALNRACQGTPDYEVVIHDPWAAVQMPQPQSGHTHSTPYKGTYGQMMALKQRYPDLKIVPSVGGWTLSDPFYSFTDKAKRDIFVASVKKFLKTWKFFDGVDIDWEFPGGKGANANLGDPVNDGPAYVALMRELRVMLDELEAETGRQYELTSAIGVGYDKIDVVNYADAVQYMDYIFAMTYDFFGGWNNVPGHQTALFCGSHMSADVCNGTGVDENGVPRQGPAYTAAHGIDRLLAQGVPANKLVLGTAMYARGWTGVTEASMTDPTNPMTGTGNGMVPGSWEPGVIDYKDVVTDYINNAAVTKGYDAQAEAPWAYNPSNGNLITYDDRRSVLAKGQYVRNLGLAGLFAWEIDADNGDILNAMQDSLAGGGGNYAPVAKAGADQVVNGAASVTLDGSASSDRDGQIVSYQWTQTSGPALTLTGSDTATATVAVPEVTADTQYAFTLTVTDNAGDTATDSVTVTAKAPGSNTAPVVAVSGPATASAGDTVVLDASQSSDADGDTLTFTWTVPAGVNATVNGATVSFVADSYTVDTPLNFTVAVSDGTDSVTESVTVTVLKDGGSTGCTNAWATGGVYNSGDIVTHSGKSWKAKWWTTGEEPGTTGEWGVWEDLGAANCQIE			1	9.1	197.7	dimers and monomers	dimers and monomers	exo-chitinase activity	xx	x			50	8	30
